Molecular target: recombinant M. hyopneumoniae mhp390 (rMhp390) (Mycoplasma hyopneumoniae)
Test: BLI; ForteBio Octet Red96; biotinylated rMhp390 immobilised on streptavidin (SA) biosensors, rNOD1 in solution; PBST (PBS, 0.02% Tween20); association 300 s, dissociation 600 s; 1:1 binding model

## recombinant NOD1 (rNOD1), nucleotide-binding oligomerization domain 1 (receptor)
  Kd: 8.14 µM
